Data reported in publication PMC5737878 (Nucleic Acids Research, 2017).

B1: IL1a TRE (FP) (dsDNA)
DNA 1: GAAGAAGACTGACTCTCAGGCTTAAGC
DNA 2: GCTTAAGCCTGAGAGTCAGTCTTCTTC
B2: MMP13 TRE (FP) (dsDNA)
DNA 1: ATAAGTGATGACTCACCATTGCA
DNA 2: TGCAATGGTGAGTCATCACTTAT
B3: Glucocorticoid receptor DNA binding domain (GR DBD, residues 417-506), 15N-labelled (domain or fragment, UniProt P04150 417-506, looked up)
chain: PPKLCLVCSDEASGCHYGVLTCGSCKVFFKRAVEGQHNYLCAGRNDCIIDKIRRKNCPACRYRKCLQAGMNLEARKTKKKIKGIQQATTG
modifications: 15N-labelled
B4: VCAM1 TRE (FP) (dsDNA)
DNA 1: TTCCGGCTGACTCATCAAGCG
DNA 2: CGCTTGATGAGTCAGCCGGAA

Tests used:
GR DBD = GR DBD (UniProt P04150 417-506); test: fluorescence polarization
NMR titration = biological target: the molecule itself; test: NMR titration

| Binder | binding result (GR DBD) | binding result (NMR titration) |
| --- | --- | --- |
| B1 | binds |  |
| B2 | binds |  |
| B3 |  | binds |
| B4 | binds |  |
